According to patent publication US20160272693A1 (ZEALAND PHARMA A S, published 2016):
*1 amine or outer side, *2 acyl side, *3 side chain or, on linkers, in order; H or OH if unused. Bridges are numbered along the chain shown (N, C = ends). [ ]: non-standard residue; d: D form. The star is where a group is joined. C20 diacid = O=C(O)CCCCCCCCCCCCCCCCCCC(=O)*; γGlu = O=C(O)[C@H](CCC(=O)[*:2])N[*:1]; Hyp = O=C(O)[C@@H]1C[C@@H](O)CN1; NMeI = CC[C@H](C)[C@H](NC)C(=O)O; Aad = N[C@@H](CCCC(=O)O)C(=O)O; Sar = CNCC(=O)O

T1: human amylin receptor 3 (hAMYR3), hCTR2 co-expressed with human receptor activity modifying protein 3 (hRAMP3) (human, UniProt P30988 25-474; O60896 24-148)
T1 sequence (looked up) 1: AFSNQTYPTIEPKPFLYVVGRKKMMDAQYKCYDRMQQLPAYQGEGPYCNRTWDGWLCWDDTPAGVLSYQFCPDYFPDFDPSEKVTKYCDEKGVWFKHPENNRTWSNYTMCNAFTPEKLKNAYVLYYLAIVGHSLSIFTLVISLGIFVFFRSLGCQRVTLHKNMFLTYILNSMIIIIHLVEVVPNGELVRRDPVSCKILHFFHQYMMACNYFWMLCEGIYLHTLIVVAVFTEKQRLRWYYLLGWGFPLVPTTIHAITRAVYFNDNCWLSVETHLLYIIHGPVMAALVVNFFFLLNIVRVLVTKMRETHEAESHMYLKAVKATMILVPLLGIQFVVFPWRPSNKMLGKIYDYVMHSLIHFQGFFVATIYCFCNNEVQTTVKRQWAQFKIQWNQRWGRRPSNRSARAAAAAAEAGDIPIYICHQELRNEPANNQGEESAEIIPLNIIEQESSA
T1 sequence (looked up) 2: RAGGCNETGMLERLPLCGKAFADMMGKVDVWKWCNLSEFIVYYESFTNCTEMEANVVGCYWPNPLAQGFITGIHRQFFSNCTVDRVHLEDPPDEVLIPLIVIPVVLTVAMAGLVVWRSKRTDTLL

B1: [19CD]-isoGlu-R-C( )-NTAT-C( )-ATQRLAHFLQRSSF-Gly(Me)-A-Ile(Me)-LSSTEVGSSTP-NH2 (Compd. 85) (peptide)
peptide: {C20 diacid}-[γGlu]RCNTATCATQRLAHFLQRSSF[Sar]A[NMeI]LSSTEVGSSTP-NH2
modifications: disulfide 3-8
SMILES: CC[C@H](C)[C@@H](C(=O)N[C@@H](CC(C)C)C(=O)N[C@@H](CO)C(=O)N[C@@H](CO)C(=O)N[C@H](C(=O)N[C@@H](CCC(=O)O)C(=O)N[C@H](C(=O)NCC(=O)N[C@@H](CO)C(=O)N[C@@H](CO)C(=O)N[C@H](C(=O)N1CCC[C@H]1C(N)=O)[C@@H](C)O)C(C)C)[C@@H](C)O)N(C)C(=O)[C@H](C)NC(=O)CN(C)C(=O)[C@H](Cc1ccccc1)NC(=O)[C@H](CO)NC(=O)[C@H](CO)NC(=O)[C@H](CCCNC(=N)N)NC(=O)[C@H](CCC(N)=O)NC(=O)[C@H](CC(C)C)NC(=O)[C@H](Cc1ccccc1)NC(=O)[C@H](Cc1c[nH]cn1)NC(=O)[C@H](C)NC(=O)[C@H](CC(C)C)NC(=O)[C@H](CCCNC(=N)N)NC(=O)[C@H](CCC(N)=O)NC(=O)[C@@H](NC(=O)[C@H](C)NC(=O)[C@@H]1CSSC[C@H](NC(=O)[C@H](CCCNC(=N)N)NC(=O)CC[C@H](NC(=O)CCCCCCCCCCCCCCCCCCC(=O)O)C(=O)O)C(=O)N[C@@H](CC(N)=O)C(=O)N[C@@H]([C@@H](C)O)C(=O)N[C@@H](C)C(=O)N[C@@H]([C@@H](C)O)C(=O)N1)[C@@H](C)O
B2: [19CD]-isoGlu-R-C( )-NTAT-C( )-ATQRLA-Aad-FLQRSSF-Gly(Me)-A-Ile(Me)-LSSTEVGSST-Hyp-NH2 (Compd. 87) (peptide)
peptide: {C20 diacid-γGlu}-RCNTATCATQRLA[Aad]FLQRSSF[Sar]A[NMeI]LSSTEVGSST[Hyp]-NH2
modifications: disulfide 2-7
SMILES: CC[C@H](C)[C@@H](C(=O)N[C@@H](CC(C)C)C(=O)N[C@@H](CO)C(=O)N[C@@H](CO)C(=O)N[C@H](C(=O)N[C@@H](CCC(=O)O)C(=O)N[C@H](C(=O)NCC(=O)N[C@@H](CO)C(=O)N[C@@H](CO)C(=O)N[C@H](C(=O)N1C[C@H](O)C[C@H]1C(N)=O)[C@@H](C)O)C(C)C)[C@@H](C)O)N(C)C(=O)[C@H](C)NC(=O)CN(C)C(=O)[C@H](Cc1ccccc1)NC(=O)[C@H](CO)NC(=O)[C@H](CO)NC(=O)[C@H](CCCNC(=N)N)NC(=O)[C@H](CCC(N)=O)NC(=O)[C@H](CC(C)C)NC(=O)[C@H](Cc1ccccc1)NC(=O)[C@H](CCCC(=O)O)NC(=O)[C@H](C)NC(=O)[C@H](CC(C)C)NC(=O)[C@H](CCCNC(=N)N)NC(=O)[C@H](CCC(N)=O)NC(=O)[C@@H](NC(=O)[C@H](C)NC(=O)[C@@H]1CSSC[C@H](NC(=O)[C@H](CCCNC(=N)N)NC(=O)CC[C@H](NC(=O)CCCCCCCCCCCCCCCCCCC(=O)O)C(=O)O)C(=O)N[C@@H](CC(N)=O)C(=O)N[C@@H]([C@@H](C)O)C(=O)N[C@@H](C)C(=O)N[C@@H]([C@@H](C)O)C(=O)N1)[C@@H](C)O
B3: [19CD]-isoGlu-R-C( )-NTAT-C( )-ATQRLA-Aad-FLQRSSF-Gly(Me)-A-Ile(Me)-LSSTEVGSNT-Hyp-NH2 (Compd. 86) (peptide)
peptide: {C20 diacid-γGlu}-RCNTATCATQRLA[Aad]FLQRSSF[Sar]A[NMeI]LSSTEVGSNT[Hyp]-NH2
modifications: disulfide 2-7
SMILES: CC[C@H](C)[C@@H](C(=O)N[C@@H](CC(C)C)C(=O)N[C@@H](CO)C(=O)N[C@@H](CO)C(=O)N[C@H](C(=O)N[C@@H](CCC(=O)O)C(=O)N[C@H](C(=O)NCC(=O)N[C@@H](CO)C(=O)N[C@@H](CC(N)=O)C(=O)N[C@H](C(=O)N1C[C@H](O)C[C@H]1C(N)=O)[C@@H](C)O)C(C)C)[C@@H](C)O)N(C)C(=O)[C@H](C)NC(=O)CN(C)C(=O)[C@H](Cc1ccccc1)NC(=O)[C@H](CO)NC(=O)[C@H](CO)NC(=O)[C@H](CCCNC(=N)N)NC(=O)[C@H](CCC(N)=O)NC(=O)[C@H](CC(C)C)NC(=O)[C@H](Cc1ccccc1)NC(=O)[C@H](CCCC(=O)O)NC(=O)[C@H](C)NC(=O)[C@H](CC(C)C)NC(=O)[C@H](CCCNC(=N)N)NC(=O)[C@H](CCC(N)=O)NC(=O)[C@@H](NC(=O)[C@H](C)NC(=O)[C@@H]1CSSC[C@H](NC(=O)[C@H](CCCNC(=N)N)NC(=O)CC[C@H](NC(=O)CCCCCCCCCCCCCCCCCCC(=O)O)C(=O)O)C(=O)N[C@@H](CC(N)=O)C(=O)N[C@@H]([C@@H](C)O)C(=O)N[C@@H](C)C(=O)N[C@@H]([C@@H](C)O)C(=O)N1)[C@@H](C)O

Molecular target: T1, human amylin receptor 3 (hAMYR3), hCTR2 …
Experiment: cell-based or functional assay

Binder | hAMYR3 EC50 (nM); cAMP induction [nM]
B1 | 0.14
B2 | 0.13
B3 | 0.15
